Assay [1] deals with T1, murine CXCL1/KC (murine, UniProt P12850 25-96).
T1 sequence: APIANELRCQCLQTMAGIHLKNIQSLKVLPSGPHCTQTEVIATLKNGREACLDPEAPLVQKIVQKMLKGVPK
The assay can be described thus: SPR (Biacore 3000), Evasin-3 from E. coli immobilized on CM4 chip, chemokine injected, Langmuir global fit. A general note: Surface plasmon resonance follows binding to a sensor surface in real time, without labels.

Assay [2] concerns the target T2, murine CXCL2/MIP-2 (murine, UniProt P10889 28-100).
T2 sequence: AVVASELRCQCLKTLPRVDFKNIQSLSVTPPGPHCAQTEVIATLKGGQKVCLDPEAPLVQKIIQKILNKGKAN
Described as above.

Assay [3] concerns the target T3, CXCL1/Gro-alpha (UniProt P09341 35-107).
T3 construct: also called Gro-α; 125I-CXCL1/Gro-alpha
T3 sequence: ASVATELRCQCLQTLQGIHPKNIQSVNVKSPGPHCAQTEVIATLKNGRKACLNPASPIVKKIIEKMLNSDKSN
The description is as above.

Assay [4] addresses T4, CXCL8/IL-8 (UniProt P10145 28-99, limits assumed).
T4 construct: also called 125I-CXCL8/IL-8; 125I-IL-8
T4 sequence (looked up): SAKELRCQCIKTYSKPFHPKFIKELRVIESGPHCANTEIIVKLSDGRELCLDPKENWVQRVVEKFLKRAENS
Described as above.

Assay [5] deals with T4, CXCL8/IL-8. The experiment in a line: equilibrium competition receptor binding assay: inhibition of 0.1 nM 125I-IL-8 binding to CHO/CXCR1 cells.
Assay [6] addresses T1, murine CXCL1/KC. The assay can be described thus: SPR (Biacore 3000), Evasin-3 from E. coli immobilized on CM4 chip, Kd=kd/ka.
In assay [7] the target is T2, murine CXCL2/MIP-2. Described as above.
The target in assay [8] is T3, CXCL1/Gro-alpha. Described as above.
Assay [9] addresses T4, CXCL8/IL-8. Described as above.
Assay [10] concerns the target T5, CCL18/PARC (UniProt P55774 21-89).
T5 sequence: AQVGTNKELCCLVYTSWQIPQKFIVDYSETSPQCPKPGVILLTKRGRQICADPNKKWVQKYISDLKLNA
The assay can be described thus: SPR (Biacore 3000), Evasin-3 from E. coli immobilized on CM4 chip, chemokine injected.

For assay [11], the target named is T6, CCL2/MCP-1 (UniProt P13500 24-99).
T6 construct: also called 125I-MCP-1
T6 sequence (P13500 24-99 limits assumed): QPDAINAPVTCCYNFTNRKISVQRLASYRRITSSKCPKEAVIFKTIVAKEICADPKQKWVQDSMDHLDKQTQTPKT
Described as above.

Assay [12] deals with T7, CX3CL1/Fractalkine (UniProt P78423 25-100).
T7 sequence: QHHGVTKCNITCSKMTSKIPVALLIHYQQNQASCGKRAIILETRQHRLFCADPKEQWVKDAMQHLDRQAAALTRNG
The assay is described as above.

For assay [13], the target named is T8, CCL3/MIP-1-alpha (UniProt P10147 24-92).
T8 construct: also called MIP-1α
T8 sequence: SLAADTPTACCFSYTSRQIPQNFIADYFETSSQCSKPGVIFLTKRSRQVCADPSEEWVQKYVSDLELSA
The description is as above.

In assay [14] the target is T9, CCL4/MIP-1-beta (UniProt P13236 24-92).
T9 construct: also called MIP-1β
T9 sequence: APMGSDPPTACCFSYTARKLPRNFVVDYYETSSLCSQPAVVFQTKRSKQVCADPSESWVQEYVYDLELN
The assay is described as above.

Assay [15] concerns the target T10, CCL5/RANTES (UniProt P13501 24-91).
T10 construct: also called 125I-CCL5/RANTES
T10 sequence: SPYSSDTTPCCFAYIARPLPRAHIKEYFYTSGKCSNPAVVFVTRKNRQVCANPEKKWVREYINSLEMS
The assay is described as above.

Assay [16] addresses T11, CCL11/eotaxin (UniProt P51671 24-97).
T11 construct: also called 125I-eotaxin
Described as above.

Assay [17] deals with T12, CXCL12/SDF-1-alpha (UniProt P48061 22-89).
T12 construct: also called SDF-1α
T12 sequence (P48061 22-89 limits assumed): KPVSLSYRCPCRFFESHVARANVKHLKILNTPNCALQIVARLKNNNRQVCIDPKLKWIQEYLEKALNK
The assay is described as above.

T11 sequence (P51671 24-97 limits assumed): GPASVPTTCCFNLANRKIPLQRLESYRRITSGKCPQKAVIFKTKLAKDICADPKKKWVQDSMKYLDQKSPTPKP

B1: recombinant Evasin-3 produced in E. coli (Met-Evasin-3) (other)
chain: MLVSTIESRTSGDGADNFDVVSCNKNCTSGQNECPEGCFCGLLGQNKKGHCYKIIGNLSGEPPVVRR
notes: No tag, not glycosylated; also called mature Met-Evasin-3
One may read the koff as the rate constant with which the complex falls apart. Low readings indicate slow dissociation, high ones fast dissociation. By kon is commonly meant a measure of how fast the partners come together. A word on the IC50: it is the concentration that gives 50% inhibition. Higher therefore signals weaker potency in that assay. The term Kd denotes the free concentration of one partner at which half of the binding sites on the other are occupied at equilibrium, for simple one-to-one binding. A lower Kd goes with a tighter complex. With B1, the koff in [1] is 0.00235 s⁻¹; in assay [2], 0.000878 s⁻¹; in assay [3] it was 0.00269 s⁻¹; in assay [4], 0.00032 s⁻¹. For the same molecule, the kon amounted to 514000 M⁻¹ s⁻¹ in assay [1], 1.05e+06 M⁻¹ s⁻¹ in assay [2], 2.23e+06 M⁻¹ s⁻¹ in assay [3] and 603000 M⁻¹ s⁻¹ in assay [4]. The same molecule registered an IC50 in [5] of 20 nM. In addition, the dissociation constant (Kd) stood at 4.56 nM in [6], 0.84 nM in [7], 1.21 nM in assay [8] and 0.53 nM in assay [9]. The binding result in [10], in [11], in assay [12], in assay [13], in assay [14] and in assay [15] was “no binding (tested: 0.5 µg/ml chemokine)” throughout. For the same molecule, the binding result in assay [16] and in [17] was “no binding (tested: 0.5 µg/ml chemokine)” in each case.

For the origin of these results see patent US20080227711A1 (LABORATOIRES SERONO, published 2008).
